Legend:
Test in all cases: cell-based or functional assay
[1] = target: T1, human gastric inhibitory peptide receptor (GIPR) (human, UniProt P48546 22-466)
T1 sequence (looked up): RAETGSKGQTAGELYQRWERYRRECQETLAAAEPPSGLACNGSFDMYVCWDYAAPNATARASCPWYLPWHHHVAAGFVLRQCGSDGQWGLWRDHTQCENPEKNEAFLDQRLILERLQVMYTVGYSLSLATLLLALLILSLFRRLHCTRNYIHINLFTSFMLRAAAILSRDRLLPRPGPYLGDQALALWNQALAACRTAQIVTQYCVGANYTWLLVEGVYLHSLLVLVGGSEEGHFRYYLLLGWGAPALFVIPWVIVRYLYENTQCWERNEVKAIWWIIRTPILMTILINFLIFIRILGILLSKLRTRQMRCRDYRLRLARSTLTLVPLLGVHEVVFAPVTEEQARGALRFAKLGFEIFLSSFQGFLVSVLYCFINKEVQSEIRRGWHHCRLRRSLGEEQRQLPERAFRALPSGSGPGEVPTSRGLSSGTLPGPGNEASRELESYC

[2] = target: human GLP-1 receptor (GLP-1R) (human, UniProt P43220 24-463)
[3] = target: Pro-Link-tagged Human GLP-1R (human, UniProt P43220 24-463)
[4] = target: human GLP-1 receptor (human, UniProt P43220 24-463)
Throughout, for hGIPR cAMP EC50 ratio: reference of the scale not given here.
Throughout, for hGLP1R B-Arrestin2 % Top: reference of the scale not given here.
Throughout, for hGLP1R GTPgS % Top: reference of the scale not given here.
Throughout, for hGLP1R cAMP EC50 ratio: reference of the scale not given here.

B1: Example 360 (peptide)
peptide: XXEGTFTSDYSIXLDXKAQXAFVEYLIEGGPSSGAPPPS
modifications: D-Tyr1; Aib2; αMeL13; Orn16; K17 conjugated to (2-[2-(2-Amino-ethoxy)-ethoxy]-acetyl)2-(γ-Glu)-CO-(CH2)18-CO2H; Aib20; C-terminal amide
For B1, the “hGIPR cAMP EC50 ratio” value [1] was 0.53 ratio, the “hGIPR cAMP Rel EC50” value [1] was 0.197 nM and the “hGLP1R cAMP EC50 ratio” value [2] was 0.171 ratio. For the same binder, the “hGLP1R cAMP Rel EC50” value [2] was 0.145 nM.

B2: Example 361 (peptide)
peptide: XXEGTFTSDYSIXLDKKAQXAFVXYLIAGGPSSGAPPPS
modifications: D-Tyr1; Aib2; αMeL13; K17 conjugated to (2-[2-(2-Amino-ethoxy)-ethoxy]-acetyl)2-(γ-Glu)-CO-(CH2)18-CO2H; Aib20; D-Glu24; C-terminal amide
B2 was tested, and the “hGIPR cAMP EC50 ratio” value [1] was 0.261 ratio, the “hGIPR cAMP Rel EC50” value [1] was 0.401 nM and the “hGLP1R cAMP EC50 ratio” value [2] was 0.0259 ratio. For the same binder, the “hGLP1R cAMP Rel EC50” value [2] was 0.955 nM.

B3: Example 362 (peptide)
peptide: XXEGTFTSDYSIXLDXKAQXAFVXYLIAGGPSSGAPPPS
modifications: D-Tyr1; Aib2; αMeL13; Orn16; K17 conjugated to (2-[2-(2-Amino-ethoxy)-ethoxy]-acetyl)2-(γ-Glu)-CO-(CH2)18-CO2H; Aib20; D-Glu24; C-terminal amide
B3 was tested, and the “hGIPR cAMP EC50 ratio” value [1] was 0.347 ratio, the “hGIPR cAMP Rel EC50” value [1] was 0.302 nM and the “hGLP1R cAMP EC50 ratio” value [2] was 0.0805 ratio. For the same binder, the “hGLP1R cAMP Rel EC50” value [2] was 0.365 nM.

B4: Example 363 (peptide)
peptide: XXEGTFTSDYSIXLDXKAQXAFIXYLIAGGPSSGAPPPS
modifications: D-Tyr1; Aib2; αMeL13; Orn16; K17 conjugated to (2-[2-(2-Amino-ethoxy)-ethoxy]-acetyl)2-(γ-Glu)-CO-(CH2)16-CO2H; Aib20; D-Glu24; C-terminal amide
With B4 the “hGIPR cAMP EC50 ratio” value [1] was 0.835 ratio, the “hGIPR cAMP Rel EC50” value [1] was 0.145 nM and the “hGLP1R cAMP EC50 ratio” value [2] was 0.146 ratio. For the same binder, the “hGLP1R cAMP Rel EC50” value [2] was 0.208 nM.

B5: Example 364 (peptide)
peptide: XXEGTFTSDYSIXLDXKAQXAFVXYLIAGGPSSGAPPPS
modifications: D-Tyr1; Aib2; αMeL13; Orn16; K17 conjugated to (2-[2-(2-Amino-ethoxy)-ethoxy]-acetyl)2-(γ-Glu)-CO-(CH2)16-CO2H; Aib20; D-Glu24; C-terminal amide
For B5, the “hGIPR cAMP EC50 ratio” value [1] was 0.347 ratio, the “hGIPR cAMP Rel EC50” value [1] was 0.351 nM and the “hGLP1R cAMP EC50 ratio” value [2] was 0.0303 ratio. For the same binder, the “hGLP1R cAMP Rel EC50” value [2] was 1 nM.

B6: Example 365 (peptide)
peptide: XXEGTFTSDYSIXLDKKAQXAFIEXLIAGGPSSGAPPPS
modifications: D-Tyr1; Aib2; αMeL13; K17 conjugated to (2-[2-(2-Amino-ethoxy)-ethoxy]-acetyl)2-(γ-Glu)-CO-(CH2)18-CO2H; Aib20; αMeY25; C-terminal amide
B6 was tested, and the “hGIPR cAMP EC50 ratio” value [1] was 0.784 ratio, the “hGIPR cAMP Rel EC50” value [1] was 0.0678 nM and the “hGLP1R cAMP EC50 ratio” value [2] was 0.155 ratio. The “hGLP1R cAMP Rel EC50” value [2] was 0.175 nM.

B7: Example 366 (peptide)
peptide: XXEGTFTSDYSIXLDXKAQXAFIEXLIAGGPSSGAPPPS
modifications: D-Tyr1; Aib2; αMeL13; Orn16; K17 conjugated to (2-[2-(2-Amino-ethoxy)-ethoxy]-acetyl)2-(γ-Glu)-CO-(CH2)18-CO2H; Aib20; αMeY25; C-terminal amide
For B7, the “hGIPR cAMP EC50 ratio” value [1] was 0.598 ratio, the “hGIPR cAMP Rel EC50” value [1] was 0.0889 nM and the “hGLP1R cAMP EC50 ratio” value [2] was 0.074 ratio. For the same binder, the “hGLP1R cAMP Rel EC50” value [2] was 0.366 nM.

B8: Example 367 (peptide)
peptide: YXEGTFTSDYSIXLDKKAQXEFIEXLIAGGPSSGAPPPS
modifications: Aib2; αMeL13; K17 conjugated to (2-[2-(2-Amino-ethoxy)-ethoxy]-acetyl)2-(γ-Glu)-CO-(CH2)18-CO2H; Aib20; αMeY25; C-terminal amide
In the case of B8, the “hGIPR cAMP EC50 ratio” value [1] is reported as 5.85 ratio, the “hGIPR cAMP Rel EC50” value [1] is reported as 0.0179 nM and the “hGLP1R cAMP EC50 ratio” value [2] is reported as 0.386 ratio. The “hGLP1R cAMP Rel EC50” value [2] was 0.0641 nM.

B9: Example 368 (peptide)
peptide: XXEGTFTSDYSIXLDXKAQXEFIEYLIAGGPSSGAPPPS
modifications: D-Tyr1; Aib2; αMeL13; Orn16; K17 conjugated to (2-[2-(2-Amino-ethoxy)-ethoxy]-acetyl)2-(γ-Glu)-CO-(CH2)16-CO2H; Aib20; C-terminal amide
For B9, the “hGIPR cAMP EC50 ratio” value [1] was 0.109 ratio, the “hGIPR cAMP Rel EC50” value [1] was 0.0757 nM and the “hGLP1R cAMP EC50 ratio” value [2] was 0.299 ratio. The “hGLP1R cAMP Rel EC50” value [2] was 0.108 nM.

B10: Example 369 (peptide)
peptide: XXEGTFTSDYSIXLDXKAQXDFIEYLIAGGPSSGAPPPS
modifications: D-Tyr1; Aib2; αMeL13; Orn16; K17 conjugated to (2-[2-(2-Amino-ethoxy)-ethoxy]-acetyl)2-(γ-Glu)-CO-(CH2)18-CO2H; Aib20; C-terminal amide
For B10, the “hGIPR cAMP EC50 ratio” value [1] was 0.499 ratio, the “hGIPR cAMP Rel EC50” value [1] was 0.166 nM and the “hGLP1R cAMP EC50 ratio” value [2] was 0.319 ratio. The “hGLP1R cAMP Rel EC50” value [2] was 0.101 nM.

B11: Example 370 (peptide)
peptide: XXEGTFTSDYSIXLDXKAQXEFIEYLIAGGPSSG
modifications: D-Tyr1; Aib2; αMeL13; Orn16; K17 conjugated to (2-[2-(2-Amino-ethoxy)-ethoxy]-acetyl)2-(γ-Glu)-CO-(CH2)18-CO2H; Aib20; C-terminal amide
In the case of B11, the “hGIPR cAMP EC50 ratio” value [1] is reported as 0.704 ratio, the “hGIPR cAMP Rel EC50” value [1] is reported as 0.117 nM and the “hGLP1R cAMP EC50 ratio” value [2] is reported as 0.172 ratio. For the same binder, the “hGLP1R cAMP Rel EC50” value [2] was 0.186 nM.

B12: Example 371 (peptide)
peptide: XXEGTFTSDYSIXLDXKAQXEFIEYLIAGGPSSGAPPPS
modifications: D-Tyr1; Aib2; αMeL13; Orn16; K17 conjugated to (2-[2-(2-Amino-ethoxy)-ethoxy]-acetyl)-(γ-Glu)-CO-(CH2)18-CO2H; Aib20; C-terminal amide
With B12 the “hGIPR cAMP EC50 ratio” value [1] was 0.393 ratio, the “hGIPR cAMP Rel EC50” value [1] was 0.135 nM and the “hGLP1R cAMP EC50 ratio” value [2] was 0.206 ratio. The “hGLP1R cAMP Rel EC50” value [2] was 0.132 nM.

B13: Example 372 (peptide)
peptide: XXEGTFTSDYSIXLDKKAQXEFIEXLIAGGPSSGAPPPS
modifications: D-Tyr1; Aib2; αMeL13; K17 conjugated to (2-[2-(2-Amino-ethoxy)-ethoxy]-acetyl)-(γ-Glu)-CO-(CH2)18-CO2H; Aib20; αMeY25; C-terminal amide
B13 was tested, and the “hGIPR cAMP EC50 ratio” value [1] was 0.68 ratio, the “hGIPR cAMP Rel EC50” value [1] was 0.0781 nM and the “hGLP1R cAMP EC50 ratio” value [2] was 0.0741 ratio. The “hGLP1R cAMP Rel EC50” value [2] was 0.365 nM.

B14: Example 373 (peptide)
peptide: XXEGTFTSDYSIXLDKKAQXAFIEXLIAGGPSSGAPPPS
modifications: D-Tyr1; Aib2; αMeL13; K17 conjugated to (2-[2-(2-Amino-ethoxy)-ethoxy]-acetyl)-(γ-Glu)-CO-(CH2)18-CO2H; Aib20; αMeY25; C-terminal amide
For B14, the “hGIPR cAMP EC50 ratio” value [1] was 0.287 ratio, the “hGIPR cAMP Rel EC50” value [1] was 0.185 nM and the “hGLP1R cAMP EC50 ratio” value [2] was 0.0621 ratio. For the same binder, the “hGLP1R cAMP Rel EC50” value [2] was 0.436 nM.

B15: Example 381 (peptide)
peptide: XXEGTFTSDYSIXLDEKAQXAFIEXLIAGGPSSGAPPPS
modifications: D-Tyr1, Aib2, αMeL13, K17 conjugated to (2-[2-(2-Amino-ethoxy)-ethoxy]-acetyl)2-(γ-Glu)-CO-(CH2)18-CO2H, Aib20, αMeY25, C-terminal amide (NH2)
In the case of B15, the “hGLP1R B-Arrestin2 % Top” value [3] is reported as 25.8%, the “hGLP1R B-Arrestin2 Rel EC50” value [3] is reported as 15.5 nM and the “hGLP1R GTPgS % Top” value [4] is reported as 73.6%. The “hGLP1R GTPgS Rel EC50” value [4] was 0.273 nM.

Source: patent publication US20220048967A1 (published 2022)
